Substitutions are numbered along the chain they refer to.
T1: G1-IKKβ L654D/W655D (GPCA construct) (human, UniProt O14920 1-756)
T1 construct: not shown: Gluc1 fragment of Gaussia princeps luciferase and flexible 20 amino acid linker, N-terminal
T1 sequence (looked up): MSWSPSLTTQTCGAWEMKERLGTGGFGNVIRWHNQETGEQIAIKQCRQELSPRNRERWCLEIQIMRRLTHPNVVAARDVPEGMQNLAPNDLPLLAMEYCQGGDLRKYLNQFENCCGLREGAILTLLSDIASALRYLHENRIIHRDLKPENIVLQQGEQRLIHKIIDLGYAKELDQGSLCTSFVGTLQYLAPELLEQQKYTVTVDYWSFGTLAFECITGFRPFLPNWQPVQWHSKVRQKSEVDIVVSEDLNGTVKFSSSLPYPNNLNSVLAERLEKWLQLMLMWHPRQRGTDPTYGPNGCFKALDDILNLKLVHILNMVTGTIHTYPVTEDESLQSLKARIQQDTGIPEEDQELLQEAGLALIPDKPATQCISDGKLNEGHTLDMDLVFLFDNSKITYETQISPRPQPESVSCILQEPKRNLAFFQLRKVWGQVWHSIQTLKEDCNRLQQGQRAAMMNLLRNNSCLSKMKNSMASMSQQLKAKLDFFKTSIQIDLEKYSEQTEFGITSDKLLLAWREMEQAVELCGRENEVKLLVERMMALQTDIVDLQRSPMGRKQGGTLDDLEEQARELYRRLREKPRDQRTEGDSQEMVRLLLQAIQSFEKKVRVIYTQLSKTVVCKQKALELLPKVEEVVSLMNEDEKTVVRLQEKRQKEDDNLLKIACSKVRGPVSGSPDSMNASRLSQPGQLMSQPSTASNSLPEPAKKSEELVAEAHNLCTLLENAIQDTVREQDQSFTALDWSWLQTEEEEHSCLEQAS

T2: G1-IKKα, full-length wt IKKα fused to the Gluc1 fragment (human, UniProt O15111 1-745)
T2 construct: Expressed in HEK293T cells for GPCA; full-length; also called Gluc1-IKKα; not shown: Gluc1 fragment of Gaussia princeps luciferase and flexible 20 amino acid linker, N-terminal
T2 sequence (looked up): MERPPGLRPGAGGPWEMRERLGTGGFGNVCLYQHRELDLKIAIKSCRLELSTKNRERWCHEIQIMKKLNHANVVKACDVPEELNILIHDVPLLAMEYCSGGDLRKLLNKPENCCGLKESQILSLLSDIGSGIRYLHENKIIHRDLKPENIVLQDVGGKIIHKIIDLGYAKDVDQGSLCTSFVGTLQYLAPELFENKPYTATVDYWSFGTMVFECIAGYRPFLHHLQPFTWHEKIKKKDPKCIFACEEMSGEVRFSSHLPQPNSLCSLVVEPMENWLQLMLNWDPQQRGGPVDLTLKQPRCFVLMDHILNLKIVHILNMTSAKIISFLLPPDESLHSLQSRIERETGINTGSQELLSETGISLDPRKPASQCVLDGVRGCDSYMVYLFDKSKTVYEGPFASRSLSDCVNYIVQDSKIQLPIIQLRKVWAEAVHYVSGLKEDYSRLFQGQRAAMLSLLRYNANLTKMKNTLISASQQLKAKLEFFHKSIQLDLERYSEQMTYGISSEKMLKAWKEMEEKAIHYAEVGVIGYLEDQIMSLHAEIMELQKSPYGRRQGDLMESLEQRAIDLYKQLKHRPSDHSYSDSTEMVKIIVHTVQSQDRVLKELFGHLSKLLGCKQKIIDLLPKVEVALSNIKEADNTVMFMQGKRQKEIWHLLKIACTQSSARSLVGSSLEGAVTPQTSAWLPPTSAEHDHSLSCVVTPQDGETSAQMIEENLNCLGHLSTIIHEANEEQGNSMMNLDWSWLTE

T3: G1-IKKβ, full-length wt IKKβ fused to the Gluc1 fragment (human, UniProt O14920 1-756)
T3 construct: Expressed in HEK293T cells for GPCA; full-length; also called Gluc1-IKKβ; not shown: Gluc1 fragment of Gaussia princeps luciferase and flexible 20 amino acid linker, N-terminal
T3 sequence (looked up): T1 sequence (looked up) with D654L, D655W

T4: IKKα(10-667) S176E/S180E homodimer, 6×His tag removed (human, UniProt O15111 10-667)
T4 construct: also called purified IKKα
T4 sequence (looked up): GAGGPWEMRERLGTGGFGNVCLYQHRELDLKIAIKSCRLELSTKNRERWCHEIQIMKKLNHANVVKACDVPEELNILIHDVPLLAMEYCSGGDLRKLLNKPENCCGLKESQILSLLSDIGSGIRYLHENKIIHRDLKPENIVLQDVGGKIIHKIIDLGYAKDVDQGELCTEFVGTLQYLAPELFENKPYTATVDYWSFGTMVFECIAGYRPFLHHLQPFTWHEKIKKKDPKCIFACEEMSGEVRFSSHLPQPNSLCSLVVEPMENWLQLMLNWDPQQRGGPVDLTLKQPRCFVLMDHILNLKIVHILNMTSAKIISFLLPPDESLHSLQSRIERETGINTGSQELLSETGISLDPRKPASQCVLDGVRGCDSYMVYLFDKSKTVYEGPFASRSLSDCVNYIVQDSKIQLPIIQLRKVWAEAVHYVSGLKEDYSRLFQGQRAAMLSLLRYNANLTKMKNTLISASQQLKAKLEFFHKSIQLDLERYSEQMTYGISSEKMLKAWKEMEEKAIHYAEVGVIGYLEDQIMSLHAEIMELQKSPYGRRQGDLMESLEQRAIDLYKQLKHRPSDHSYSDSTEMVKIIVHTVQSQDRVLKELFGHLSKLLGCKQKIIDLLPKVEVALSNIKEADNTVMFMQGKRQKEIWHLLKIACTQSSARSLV

B1: G2-IκBα(73-317) (other, UniProt P25963 73-317, looked up)
chain: DGDSFLHLAIIHEEKALTMEVIRQVKGDLAFLNFQNNLQQTPLHLAVITNQPEIAEALLGAGCDPELRDFRGNTPLHLACEQGCLASVGVLTQSCTTPHLHSILKATNYNGHTCLHLASIHGYLGIVELLVSLGADVNAQEPCNGRTALHLAVDLQNPDLVSLLLKCGADVNRVTYQGYSPYQLTWGRPSTRIQQQLGQLTLENLQMLPESEDEESYDTESEFTEFTEDELPYDDCVFGGQRLTL
notes: range 73-317; Expressed in HEK293T cells for GPCA; also called N-terminal truncated IκBα (73-317) construct; not shown: Gluc2 fragment of Gaussia princeps luciferase and flexible 20 amino acid linker, N-terminal

Key:
[1] = target: T1, G1-IKKβ L654D/W655D (GPCA construct); assay: GPCA in HEK293T cells
Description: (§1) HEK293T cells were transfected using the reverse transfection method. Transfection mixes containing 100 ng of pSPICA-N2 and 100 ng of pSPICA-N1 plasmids expressing test proteins plus JetPEI® (Polyplus transfection) were dispensed in white 96-well plates. HEK293T cells were then seeded on the DNA mixes at a concentration of 4.2×10^4 cells per well. 48 hours after transfection, cells were washed with 50 μl of PBS and lysed with 40 μl of Renilla lysis buffer (Promega, E2820) for 30 minutes with agitation. Gaussia princeps luciferase enzymatic activity was measured using a Berthold Centro LB960 luminometer by injecting 50 μl per well of luciferase substrate reagent (Promega, E2820) and counting luminescence for 10 seconds. Results are expressed as a fold change normalized over the sum of controls, specified herein as normalized luminescence ratio (NLR) 29. For a given protein pair A/B, NLR=(Gluc1-A+Gluc2-B)/[(Gluc1-A+Gluc2)+(Gluc1+Gluc2-B)]. All interactions were measured in three independent experiments, with each experiment being carried out in triplicate. The expression levels of Gluc1- and Gluc2-fused proteins were checked by Western blotting. 24 hours post-transfection, HEK293T cells were collected, lysed by incubation on ice and centrifuged. Aliquots of cleared supernatants were loaded onto an 10% SDS-PAGE gel.

[2] = target: T2, G1-IKKα, full-length wt IKKα fused to …; assay: GPCA (Gaussia princeps protein complementation assay) in HEK293T cells, NLR, mean ± SD of triplicates
Description: as §1

[3] = target: T3, G1-IKKβ, full-length wt IKKβ fused to …; assay: as above
Description: as §1

[4] = target: T4, IKKα(10-667) S176E/S180E homodimer, …; assay: ITC, 25 °C, 1:1 model; values called estimates
Description: (§2) All experiments were performed in ITC buffer (20 mM HEPES pH 8.0, 150 mM NaCl, 1 mM TCEP) unless otherwise stated. […] Just before the ITC experiments, IKKα or IKKβ samples were concentrated, incubated at room temperature for 30 minutes and centrifuged at 11000 g to remove eventual precipitate. The final concentrations of IKKα and IKKβ in the sample cell varied between 22 and 50 μM depending on the measurement. […] The concentration of peptides in the syringe varied between 220 and 975 μM depending on the measurement.
(§3) All ITC experiments were performed at 25° C. The data were fitted to a 1:1 binding model. […] All data were processed using NITPIC software and global fitting of two datasets was carried out using SEDPHAD.

[5] = target: T4, IKKα(10-667) S176E/S180E homodimer, …; assay: ITC, 25 °C, 1:1 model; values called estimates; table value; footnote calls it an estimate
Description: as §2, §3

[6] = target: T4, IKKα(10-667) S176E/S180E homodimer, …; assay: ITC, given as a lower bound

Binder	binding result [1]	binding result [2]	binding result [3]	TΔS [4] [kcal/mol]	ΔG [4] [kcal/mol]	ΔH [4] [kcal/mol]	Kd [5] [µM]	Kd [6] [µM]
B1	no binding	binds	binds	–	–	–	–	–
LSSANSLYDDIECFLMELEQPA [synthetic IRF7 pep]	–	–	–	-1.2	-5.5	-6.7	~90	> 90

— patent US20260265321A1, “PEPTIDE AND POLYPEPTIDE INHIBITING THE NF-KB SIGNALING PATHWAY” (Centre National de la Recherche Scientifique, priority 2023, published 2026)
